{"source": "paper PMC11077089", "about": "“Molecular basis of A. thaliana KEOPS complex in biosynthesizing tRNA t^6A” (Nucleic Acids Research, 2024)", "substrate": "Nc1ncnc2c1ncn2[C@@H]1O[C@H](COP(=O)(O)OP(=O)(O)OP(=O)(O)O)[C@@H](O)[C@H]1O", "experiment": "NADH-coupled ATPase assay (pyruvate kinase / lactate dehydrogenase), Michaelis-Menten", "assay_type": "biochemical, Arabidopsis thaliana", "settings": "no tRNA, 2 μM protein, 0–50 μM ATP, 5 mM MgCl2, pH 7.5, 25°C, BUD32 site", "data": [{"protein": "AtKEOPS (wild-type KEOPS dimer, P2K2B2C2) (Arabidopsis thaliana) (protein, reconstituted from KAE1-PCC1-6His and BUD32-CGI121-6His expressed in E. coli; SEC ~200 kDa dimer; some N-terminal KAE1 degradation; with tRNA N6-adenosine threonylcarbamoyltransferase KAE1; EKC/KEOPS complex subunit CGI121; EKC/KEOPS complex subunit PCC1) MDCEENVRDESLVLIKQGAEARVFESTFAGRRSIVKERFSKKYRHPILDAKLTLKRLNAEARCMTKARKLGVCTPVLYAVDTLLHSLTLEYIEGVSVKDIFLEFGTNGVVEERLDDVAAQIGAAIAKLHDGGLAHGDLTTSNMLVRSGTNQLVLIDFGLSVTSTLPEDKAVDLYVLERALLSMHSSCGNVMDRILTAYRKSSKQWSATFNKLAQVRQRGRKRTMIG", "values": [{"measurement": "Km", "value": "0.95 ± 0.053", "unit": "µM"}, {"measurement": "kcat", "value": "0.019 ± 0.00073", "unit": "s^–1"}]}]}
